In this series the test system is T1, Cc1cc(=O)oc2c(F)c(OP(=O)(O)O)c(F)cc12.
T1 construct: Full-length human PTPN6 with an N-terminal hexahistidine (His6) tag
The experiment in a line: Michaelis-Menten kinetics, fluorescence (Km). Type of series: biochemical, Homo sapiens.

On to PTPN6 (Homo sapiens), for which the Km (as a rule, the substrate concentration at which the rate is half of its maximum) came out at 86.26 µM.

The values are drawn from article PMC9105384, “Ethyl Gallate Dual-Targeting PTPN6 and PPARγ Shows Anti-Diabetic and Anti-Obese Effects” (International Journal of Molecular Sciences, 2022).
